From PMC5070119, “Oligomeric interface modulation causes misregulation of purine 5´-nucleotidase in relapsed leukemia” (BMC Biology, 2016)

B1: cytosolic purine 5'-nucleotidase (cN-II), full-length wild type (enzyme, human, UniProt P49902 1-561, looked up)
chain: MSTSWSDRLQNAADMPANMDKHALKKYRREAYHRVFVNRSLAMEKIKCFGFDMDYTLAVYKSPEYESLGFELTVERLVSIGYPQELLSFAYDSTFPTRGLVFDTLYGNLLKVDAYGNLLVCAHGFNFIRGPETREQYPNKFIQRDDTERFYILNTLFNLPETYLLACLVDFFTNCPRYTSCETGFKDGDLFMSYRSMFQDVRDAVDWVHYKGSLKEKTVENLEKYVVKDGKLPLLLSRMKEVGKVFLATNSDYKYTDKIMTYLFDFPHGPKPGSSHRPWQSYFDLILVDARKPLFFGEGTVLRQVDTKTGKLKIGTYTGPLQHGIVYSGGSSDTICDLLGAKGKDILYIGDHIFGDILKSKKRQGWRTFLVIPELAQELHVWTDKSSLFEELQSLDIFLAELYKHLDSSSNERPDISSIQRRIKKVTHDMDMCYGMMGSLFRSGSRQTLFASQVMRYADLYAASFINLLYYPFSYLFRAAHVLMPHESTVEHTHVDINEMESPLATRNRTSVDFKDTDYKRHQLTRSISEIKPPNLFPLAPQEITHCHDEDDDEEEEEEEE
notes: cytosolic purine 5'-nucleotidase (cN-II), human, EC 3.1.3.5, 561 residues; full length made by ligating a synthetic C-terminal tail into the truncated construct; Homotetramer; also called wild-type cN-II; NT5C2 product
B2: cytosolic purine 5'-nucleotidase (cN-II) R238W, full-length (enzyme, human, UniProt P49902 1-561, looked up)
chain: MSTSWSDRLQNAADMPANMDKHALKKYRREAYHRVFVNRSLAMEKIKCFGFDMDYTLAVYKSPEYESLGFELTVERLVSIGYPQELLSFAYDSTFPTRGLVFDTLYGNLLKVDAYGNLLVCAHGFNFIRGPETREQYPNKFIQRDDTERFYILNTLFNLPETYLLACLVDFFTNCPRYTSCETGFKDGDLFMSYRSMFQDVRDAVDWVHYKGSLKEKTVENLEKYVVKDGKLPLLLSWMKEVGKVFLATNSDYKYTDKIMTYLFDFPHGPKPGSSHRPWQSYFDLILVDARKPLFFGEGTVLRQVDTKTGKLKIGTYTGPLQHGIVYSGGSSDTICDLLGAKGKDILYIGDHIFGDILKSKKRQGWRTFLVIPELAQELHVWTDKSSLFEELQSLDIFLAELYKHLDSSSNERPDISSIQRRIKKVTHDMDMCYGMMGSLFRSGSRQTLFASQVMRYADLYAASFINLLYYPFSYLFRAAHVLMPHESTVEHTHVDINEMESPLATRNRTSVDFKDTDYKRHQLTRSISEIKPPNLFPLAPQEITHCHDEDDDEEEEEEEE
notes: cytosolic purine 5'-nucleotidase (cN-II), human, 561 residues, with the relapsed-ALL somatic mutation R238W; Mutation found in patients with relapsed ALL; Homotetramer; also called R238W mutant
B3: cytosolic purine 5'-nucleotidase (cN-II) L375F, full-length (enzyme, human, UniProt P49902 1-561, looked up)
chain: MSTSWSDRLQNAADMPANMDKHALKKYRREAYHRVFVNRSLAMEKIKCFGFDMDYTLAVYKSPEYESLGFELTVERLVSIGYPQELLSFAYDSTFPTRGLVFDTLYGNLLKVDAYGNLLVCAHGFNFIRGPETREQYPNKFIQRDDTERFYILNTLFNLPETYLLACLVDFFTNCPRYTSCETGFKDGDLFMSYRSMFQDVRDAVDWVHYKGSLKEKTVENLEKYVVKDGKLPLLLSRMKEVGKVFLATNSDYKYTDKIMTYLFDFPHGPKPGSSHRPWQSYFDLILVDARKPLFFGEGTVLRQVDTKTGKLKIGTYTGPLQHGIVYSGGSSDTICDLLGAKGKDILYIGDHIFGDILKSKKRQGWRTFLVIPEFAQELHVWTDKSSLFEELQSLDIFLAELYKHLDSSSNERPDISSIQRRIKKVTHDMDMCYGMMGSLFRSGSRQTLFASQVMRYADLYAASFINLLYYPFSYLFRAAHVLMPHESTVEHTHVDINEMESPLATRNRTSVDFKDTDYKRHQLTRSISEIKPPNLFPLAPQEITHCHDEDDDEEEEEEEE
notes: cytosolic purine 5'-nucleotidase (cN-II), human, 561 residues, with the relapsed-ALL somatic mutation L375F; Mutation found in patients with relapsed ALL; Homotetramer; also called L375F mutant
B4: cytosolic purine 5'-nucleotidase (cN-II) R367Q, full-length (enzyme, human, UniProt P49902 1-561, looked up)
chain: MSTSWSDRLQNAADMPANMDKHALKKYRREAYHRVFVNRSLAMEKIKCFGFDMDYTLAVYKSPEYESLGFELTVERLVSIGYPQELLSFAYDSTFPTRGLVFDTLYGNLLKVDAYGNLLVCAHGFNFIRGPETREQYPNKFIQRDDTERFYILNTLFNLPETYLLACLVDFFTNCPRYTSCETGFKDGDLFMSYRSMFQDVRDAVDWVHYKGSLKEKTVENLEKYVVKDGKLPLLLSRMKEVGKVFLATNSDYKYTDKIMTYLFDFPHGPKPGSSHRPWQSYFDLILVDARKPLFFGEGTVLRQVDTKTGKLKIGTYTGPLQHGIVYSGGSSDTICDLLGAKGKDILYIGDHIFGDILKSKKRQGWQTFLVIPELAQELHVWTDKSSLFEELQSLDIFLAELYKHLDSSSNERPDISSIQRRIKKVTHDMDMCYGMMGSLFRSGSRQTLFASQVMRYADLYAASFINLLYYPFSYLFRAAHVLMPHESTVEHTHVDINEMESPLATRNRTSVDFKDTDYKRHQLTRSISEIKPPNLFPLAPQEITHCHDEDDDEEEEEEEE
notes: cytosolic purine 5'-nucleotidase (cN-II), human, 561 residues, with the relapsed-ALL somatic mutation R367Q; Mutation found in patients with relapsed ALL; Homotetramer; also called R367Q mutant

Target: the molecule itself
Test: SEC; Superdex 200 10/300 GL, 50 mM sodium phosphate pH 7.4, 100 mM NaCl, 2 mM TCEP; 200 ul of 0.5 mg/ml protein; calibrated with high molecular weight standards

Stoichiometry N, 4:
B1, B2, B3, B4
